Three substances from paper PMC5938345 can be followed below.

The target of assay [1] is gp350-ECDFL-Fc_(mIgG2a) (Epstein-Barr virus (strain M81) | mouse) (UniProt P03200). Briefly: AUC; sedimentation velocity, 20°C, PBS, 35,000 rpm, samples diluted to 1 OD at 280 nm; c(s) and c(M) in Sedfit.
The target is the same in assay [2]. Briefly: SDS-PAGE under reducing and non-reducing conditions with Western blot; 15 µl supernatants of passage 1 baculovirus stocks, with and without β-ME, 10% SDS-PAGE; detected by anti-His or anti-mouse Fc antibody.
Assay [3] addresses gp350-ECD123-Fc_(mIgG2a) (Epstein-Barr virus (strain M81) | mouse) (UniProt P03200). Briefly: AUC; sedimentation velocity, 20°C, PBS, 35,000 rpm, samples diluted to 1 OD at 280 nm; c(s) and c(M) in Sedfit.
Assay [4] shares this target. Kind of assay: SDS-PAGE under reducing and non-reducing conditions with Western blot; 15 µl supernatants of passage 1 baculovirus stocks, with and without β-ME, 10% SDS-PAGE; detected by anti-His or anti-mouse Fc antibody. (In general: A western blot detects proteins with antibodies after separation by electrophoresis.)
Assay [5] has as its target gp350-ECD123-6His (Epstein-Barr virus (strain M81)) (UniProt P03200). Kind of assay: SPR; Biacore T200; the three recombinant gp350s immobilised on CM5 chip at pH 5.5 with low RU to avoid avidity; MBP-hCR2 SCR1-2 injected at 30 µl/min; regeneration with 10 mM glycine-HCl pH 1.5; 1:1 fit.
The target of assay [6] is gp350-ECD123-Fc_(mIgG2a) (Epstein-Barr virus (strain M81) | mouse) (UniProt P03200). The assay is described as above.
Assay [7] addresses gp350-ECDFL-Fc_(mIgG2a) (Epstein-Barr virus (strain M81) | mouse) (UniProt P03200). The description is as above.

As for “gp350-ECDFL-Fc_(mIgG2a) (from UniProt P03200-1 1-803) (Fc fusion)”, the stoichiometry N in assay [1] and in assay [2] was 2 each time.
For the substance “gp350-ECD123-Fc_(mIgG2a) (from UniProt P03200-1 1-425) (Fc fusion)”, the stoichiometry N in assay [3] and in assay [4] was 2 in each case.
For MBP-hCR2 SCR1-2 (domain or fragment), the Kd in assay [5] was 294 nM; in assay [6], 94.6 nM; in assay [7], 68.5 nM. Further, the off-rate (koff) in assay [5] was 0.00141 s⁻¹; in assay [6] it was 0.00383 s⁻¹; in assay [7], 0.0012 s⁻¹. Also, the kon was 4780 M⁻¹ s⁻¹ in assay [5], 40500 M⁻¹ s⁻¹ in assay [6] and 17600 M⁻¹ s⁻¹ in assay [7].

The stoichiometry N is a count of units in the complex or per binding partner. What is called koff is a measure of how fast the partners let go of each other. As a reminder, the kon is the rate constant with which the complex forms.
